Experimental findings from publication PMC4517315, “Functional properties and structural characterization of rice δ^1-pyrroline-5-carboxylate reductase” (Frontiers in Plant Science, 2015) are described below.

For series [1], the target named is Oryza sativa P5C reductase, from pMCSG68, for crystallization (Oryza sativa (japonica rice)). The series is described as follows: crystal structure; 3.40 Å, space group P2(1), two decamers in the asymmetric unit; crystals from 100 mM Tris-HCl pH 8.5, 200 mM MgCl2, 18% PEG 8000, 19°C; molecular replacement with a homology model based on PDB 2izz.
Series [2] deals with T1, rice δ^1-pyrroline-5-carboxylate reductase (Oryza sativa, UniProt Q8GT01).
T1 construct: gene Os01g0948400
Nature of the series: product inhibition of purified recombinant enzyme, NADH-dependent P5C reduction at […] nm; Lineweaver-Burk/non-linear regression. Format: biochemical.

Series [3] deals with rice (Oryza sativa L.) δ1-pyrroline-5-carboxylate (P5C) reductase, from pET151-OsP5CR, TEV-cleaved (Oryza sativa (japonica rice)). Nature of the series: SEC; gel permeation on Superose 12 HR 10/30, 50 mM Tris-HCl pH 7.75, 250 mM NaCl, 100 uL of protein at 10 mg/mL, calibrated with molecular weight markers; identical elution patterns up to 1 M NaCl (data not shown); size of the oligomer from the apparent mass. Background: Size exclusion chromatography separates by hydrodynamic size, large species first.

Substrate in series [4]: NC(=O)C1=CN([C@@H]2O[C@H](COP(=O)(O)OP(=O)(O)OC[C@H]3O[C@@H](n4cnc5c(N)ncnc54)[C@H](OP(=O)(O)O)[C@@H]3O)[C@@H](O)[C@H]2O)C=CC1
The series is described as follows: purified protein. The note with it: varied: cofactor.

Substrate in series [5]: NC(=O)C1=CN([C@@H]2O[C@H](COP(=O)(O)OP(=O)(O)OC[C@H]3O[C@@H](n4cnc5c(N)ncnc54)[C@H](O)[C@@H]3O)[C@@H](O)[C@H]2O)C=CC1
The series is described as follows: purified protein. Conditions: P5C binding is required to allow NADH to enter the active site; varied: cofactor.

Substrate in series [6]: O=C(O)C1CCC=N1
Nature of the series: purified protein. The note with it: NADPH P5C binds before NADPH (ordered substrate binding). In kind it is biochemical, Oryza sativa.

What is called stoichiometry N is the number of molecules, sites or subunits per partner or assembly. In series [1], “Oryza sativa P5C reductase, from pMCSG68, for crystallization (enzyme)” had a stoichiometry N of 10 subunits.

In general, Ki refers to the dissociation constant of the complex between target and ligand, obtained from inhibition or displacement. For the molecule `NC(=O)c1ccc[n+]([C@@H]2O[C@H](COP(=O)([O-])OP(=O)(O)OC[C@H]3O[C@@H](n4cnc5c(N)ncnc54)[C@H](OP(=O)(O)O)[C@@H]3O)[C@@H](O)[C@H]2O)c1` [NADP^+], in series [2], the Ki was 0.00773 ± 0.00069 mM.

In the case of `O=C(O)[C@@H]1CCCN1` [L-proline], the Ki in series [2] turned out to be 20.2 ± 1 mM.

For the molecule “rice (Oryza sativa L.) δ1-pyrroline-5-carboxylate (P5C) reductase, from pET151-OsP5CR, TEV-cleaved (enzyme)”, the stoichiometry N in series [3] was 14 subunits.

B1: rice δ^1-pyrroline-5-carboxylate reductase (Oryza sativa Japonica Group) (protein)
chain: MAAPPQPVPAPAAASPEVFRLGFIGPGNLAESIARGVAASGVLPATAIRTAPHRRPERAEAFSSIGAHILETNAQVVDDSDVIVISVKPQIVRQVLVELKPLLSEEKLLVSIAAGIKMEDLQGWSGHRRFIRVMPNTPSAVGQAASVMCLGEMATENDENRVRSLFSAIGKVWTAEEKYFDAVTGLSGSGPAYIFLAIEAMADGGVAAGLPRDLALGLASQTVLGAATMVNKTGKHPGQLKDMVTSPAGTTITGIQELEKGAFRGTLINAVVAATKRCRELSQS
By Km is commonly meant the concentration of substrate that gives half-maximal velocity. Take B1: the Km in “purified protein [4]” was found to be 49.4 ± 1.8 µM; in “purified protein [5]”, 806 ± 89 µM; in the series “purified protein [6]”, 28.8 ± 1.7 µM. Besides, the figures for the Vmax in the series “purified protein [4]” and in “purified protein [5]” were 11.68 ± 0.16 μkat (mg protein)^-1 and 158.3 ± 13.2 μkat (mg protein)^-1, respectively.
